Numbering of substitutions follows the chain as printed.
B1: Clone CH3C.21 (designed binder)
chain: APELLGGPSVFLFPPKPKDTLMISRTPEVTCVVVDVSHEDPEVKFNWYVDGVEVHNAKTKPREEQYNSTYRVVSVLTVLHQDWLNGKEYKCKVSNKALPAPIEKTISKAKGQPREPQVYTLPPSRDELTKNQVSLTCLVKGFYPSDIAVEWESLGLVWVGYKTTPPVLDSDGSFFLYSKLTVPKSTWQQGWVFSCSVMHEALHNHYTQKSLSLSPGK
notes: Modified Fc polypeptide
B2: Clone CH3C.35.21 (designed binder)
chain: B1 chain with E150W, L154Y, L156T, V157E, V159S, G160S, P183T, S185E, T186E, W191F
notes: Modified Fc polypeptide
B3: Clone CH3C.34 (designed binder)
chain: B1 chain with G160F, Y161S
notes: Modified Fc polypeptide
B4: Clone CH3C.3.2-1 (designed binder)
chain: B1 chain with L156H, G160N, Y161F
notes: Modified Fc polypeptide; also called CH3C.18.3.2-1
B5: Clone CH3C.25 (designed binder)
chain: B1 chain with L154M, L156H, P183D
notes: Modified Fc polypeptide

Experiments:
[1] = biological target: T1, Human transferrin receptor protein 1 (TFR1) (human, UniProt P02786 89-760, limits assumed); experiment: soft randomization libraries selected against human TfR
T1 construct: also called human TfR
T1 sequence (P02786 89-760 limits assumed): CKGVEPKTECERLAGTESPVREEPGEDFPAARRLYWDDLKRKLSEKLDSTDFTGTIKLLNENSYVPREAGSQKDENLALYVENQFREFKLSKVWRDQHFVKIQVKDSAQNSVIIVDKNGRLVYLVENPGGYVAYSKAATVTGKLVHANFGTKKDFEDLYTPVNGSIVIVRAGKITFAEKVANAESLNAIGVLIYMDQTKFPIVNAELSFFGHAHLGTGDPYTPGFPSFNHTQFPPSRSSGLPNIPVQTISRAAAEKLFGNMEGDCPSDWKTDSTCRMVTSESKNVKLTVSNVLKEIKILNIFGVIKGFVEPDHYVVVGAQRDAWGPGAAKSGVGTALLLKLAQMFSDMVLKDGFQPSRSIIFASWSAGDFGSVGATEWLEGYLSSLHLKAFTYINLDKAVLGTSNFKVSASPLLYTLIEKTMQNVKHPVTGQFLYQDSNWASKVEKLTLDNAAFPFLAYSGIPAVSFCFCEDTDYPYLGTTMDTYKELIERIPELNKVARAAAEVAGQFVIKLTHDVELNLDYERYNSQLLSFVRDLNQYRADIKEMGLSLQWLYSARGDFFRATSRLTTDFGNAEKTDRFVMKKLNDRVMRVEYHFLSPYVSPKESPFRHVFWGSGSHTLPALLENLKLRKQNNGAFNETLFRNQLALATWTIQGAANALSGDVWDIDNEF

[2] = biological target: T1, Human transferrin receptor protein 1 …; experiment: selection of combinatorial CH3 libraries for binders to human TfR, affinity maturation
[3] = biological target: T1, Human transferrin receptor protein 1 …; experiment: binding ELISA, purified Fab-Fc fusion, TfR coated on the plate
Description: Binding ELISAs were conducted with purified Fab-Fc fusion variants with human or cyno TfR coated on the plate, as described above. The variants from the clone CH3C.18 maturation library, clone CH3C.3.2-1, clone CH3C.3.2-5, and clone CH3C.3.2-19, bound human and cyno TfR with approximately equivalent EC₅₀ values, whereas the parent clones CH3C.18 and CH3C.35 had greater than 10-fold better binding to human versus cyno TfR.
ELISA plates were coated with antigen, typically at […] overnight, then blocked with 1% BSA before addition of phage or periplasmic extracts. […] The plates were washed again, and then developed with TMB reagent and quenched with 2N sulfuric acid. Absorbance at 450 nm was quantified using a plate reader (BioTek®) and binding curves were plotted using Prism software where applicable. Absorbance signal for tested clones was compared to negative control (phage or paraplasmic extract lacking Fc). In some assays, soluble transferrin or other competitor was added during the binding step, typically at significant molar excess (greater than 10-fold excess).

| Binder | binding result [1] | other results |
| --- | --- | --- |
| B1 | binds | – |
| B2 | – | binding result [2]: binds |
| B3 | binds | – |
| B4 | – | binding result [3]: binds |
| B5 | binds | – |
